# B1: MtSteA△TM (truncated soluble construct of M. tuberculosis SteA, residues 12–344) (domain or fragment)
# chain: SRPGLIGIARVDRNIDRLLRRVCPGDIVVLDVLDLDRITADALVEAEIAAVVNASSSVSGRYPNLGPEVLVTNGVTLIDETGPEIFKKVKDGAKVRLYEGGVYAGDRRLIRGTERTDHDIADLMREAKSGLVAHLEAFAGNTIEFIRSESPLLIDGIGIPDVDVDLRRRHVVIVADEPSGPDDLKSLKPFIKEYQPVLVGVGTGADVLRKAGYRPQLIVGDPDQISTEVLKCGAQVVLPADADGHAPGLERIQDLGVGAMTFPAAGSATDLALLLADHHGAALLVTAGHAANIETFFDRTRVQSNPSTFLTRLRVGEKLVDAKAVATLYRNHI
# notes: Dimer in solution and in the crystal; also called Rv1697; not shown: His6, N-terminal, cleaved; SUMO, N-terminal, cleaved
# B2: MtRipACC (coiled-coil domain of M. tuberculosis RipA, residues 40–240) (domain or fragment)
# chain: DPQTDTIAALIADVAKANQRLQDLSDEVQAEQESVNKAMVDVETARDNAAAAEDDLEVSQRAVKDANAAIAAAQHRFDTFAAATYMNGPSVSYLSASSPDEIIATVTAAKTLSASSQAVMANLQRARTERVNTESAARLAKQKADKAAADAKASQDAAVAALTETRRKFDEQREEVQRLAAERDAAQARLQAARLVAWSSE
# modifications: biotin (EZ-Link NHS-PEG4-Biotin, 20 molar excess) in the BLI assays only
# notes: Biotinylated and immobilised on streptavidin sensors for BLI; not biotinylated in the crystal of the complex; also called RipA coiled-coil domain; CC domain of RipA; not shown: His6, N-terminal, cleaved; SUMO, N-terminal, cleaved
# How the values were obtained:
# [1] = target: the molecule itself; assay: SEC-SLS; SEC with triple detection (UV, refractometer, SLS 7° and 90°, viscometer), Superdex 75 Increase 10/300 GL, 25 mM Hepes pH 7.5, 150 mM NaCl, 20°C; sample 1–5 mg/mL
# [2] = target: T1, MtSteB△TM (soluble M. tuberculosis SteB devoid of its TM domain, residues 38–314) (Mycobacterium tuberculosis, UniProt P9WJ83 38-314); assay: BLI; biotinylated MtRipACC immobilised on streptavidin biosensors; Octet-Red384, 25°C; 25 mM HEPES pH 7.5, 150 mM NaCl, 5% glycerol, 1 mg/mL BSA, 0.05% Tween 20; MtSteB 200–3.125 μM or MtRipACAT 80–1.25 μM; steady-state signal, one-site binding model; apparent Kd; details: both partners purified
# T1 construct: Homodimer in both crystal structures; also called MctB; Rv1698; not shown: His6, N-terminal, cleaved; SUMO, N-terminal, cleaved
# T1 sequence (P9WJ83 38-314): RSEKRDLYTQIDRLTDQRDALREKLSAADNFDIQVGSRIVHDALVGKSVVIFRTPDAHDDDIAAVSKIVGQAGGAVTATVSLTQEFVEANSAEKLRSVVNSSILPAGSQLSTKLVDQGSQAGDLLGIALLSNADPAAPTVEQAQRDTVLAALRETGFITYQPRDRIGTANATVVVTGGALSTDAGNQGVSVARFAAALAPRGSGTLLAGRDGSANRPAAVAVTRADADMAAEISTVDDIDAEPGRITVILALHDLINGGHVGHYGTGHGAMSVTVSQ
Binder,stoichiometry N [1],Kd [2] [µM]
B1,2,–
B2,–,42.6 ± 4.4

# — article PMC12977500, “Mechanistic insights into SteAB regulation of cell wall hydrolase RipA in Mycobacterium tuberculosis” (mBio, 2026)
